{
  "source": "paper PMC11087588",
  "about": "“Genetic and functional diversity of β-N-acetylgalactosamine-targeting glycosidases expanded by deep-sea metagenome analysis” (Nature Communications, 2024)",
  "molecules": {"B1": {"name": "NgaLy (Lacticaseibacillus yichunensis) (protein)", "chain": "MDYQIDLVDPLTKVFADEVPDAWVVATQMVLQGEPLVLQLAYQRLRDDDASFSELTLATSLSAQCFEINQVPSQLPTWPHPDARYLRTTPGLFPDLLTPLTGPVRAYHGQVRALWLKIPTESLTPGSYELTITLTETASGQVVFSQTVPLTVAAAVAQPPRLHHTEWFSVDCLADYYHEAPYTPRLWAIIGNFMVFAHDEALMDTLLTPIFTPPLDTAVGATRTNVQLVQILPGTPYRFDWSRLRKWCQLAQQSGFAYLEMPPLFTQWGAQATPTITDTAGTALFGWHVPSTAPAYRAFLQALLPQLLAVLAEEGYDRDHLFFHLADEPNASTEDGYRAARAQVADLLDGLQVIDALSDVRFYENGLVPHPVVADDALAPFLAADAAPLWTYYCCAQTTAVPNRFFALRSYDNRVLGVLLYRHQIQGFLHWGFNFYNAQLSTRPIDPFAVTDAGGAFPSGDPFLVYPGADGQPLNSLRNEVQRLGFGDLAVLQQLEALKGRPFVERLIDVTAGMVPQFDDYPPDAGWLTRLHEKAVATLAAAAPAHKKE", "notes": "synthetic gene, pET-47b(+), E. coli BL21 Star (DE3); His tag cut with HRV3C; monomer; DE motif D327/E328"}, "B2": {"name": "NgaBf (Brachybacterium faecium DSM 4810) (protein)", "chain": "MQTVLTDSLEKVLGESAPRPAAPIGGAHASGFLGEVLSVQVALRAEEGEAPDPRSAEHAALRVRLGGEIADSARVHAVRRVPVSSPAPAEADEHYLATAPGEYPDLLEPLGGEEVRVGRGLWEALWIDVIDAPPGEHTLTLALTDTTGEQVLAEHAVQLRVHPHQLPPLSITNTHWFHADSLSTYYDVEVLSPQHWELIEAFLASAREMDVTSVLTPTWTPPLDTAEGHTRPFVQLIGIREEEGEYSFDLSALDRWLEICGRLGFTGIEIAHLFTQWGARSTPAIQVETGSGLEHRFGWHVPATSPEYRRLLEALIPVLRAHLEEHWDGQVLWHISDEPHEDQLDSYRAAKEQVADLLEGAQVVDALSSLAFAEQGVVDTPIVATSHVGPFLEAGRRPWVYYCVSQNRDVANRFIAQPSVRNRVLGRQLFAFDAPGFLHWGYNFWWAQFSLRPIDPFEETCAGGPFFGGDSFAVYPGPEGTPWLSLRHRVFAQAMADHRALTWLAELTDRPSAVALVDEGGTLTYSSFSYDVHAHLEARHAVDERIRAALAA", "notes": "synthetic gene, pET-47b(+), E. coli BL21 Star (DE3); His tag cut with HRV3C; monomer"}, "B3": {"name": "NgaCa (Cohnella abietis) (protein)", "chain": "MANTQKTLSLSVWTASSQERVRQDDPAGESLNIELFAARGEYESFQVALKAPEGEHRNVHFVVSDLKGTGDSFISKSNLTLYREHYVYISESSPQRGTVLPEGPGWYPDALIPFIDPATNEPPSGGELIAVPFALENNSNQVIWVDIQVPRDAEAGHYSGSYIVSSEHGEVTGQISLTVWNFELPLKPSLKSTFLIWSSRKKSTVEELLKHKLMCQQWNLSEEEKGAAPTSEGEWIEKYGVNCSGLGFWSKADTFNGVMPPPPTVEEIQAAASAHPSNLFLYNYTADEIGHYTSLYEPIKAWARNLHEAGVANLITMAPVPELYDDGSGSGRSAVDIWVILPLQYDKDRIQEVLAKGDEVWSYNCCVQDDYSPKWQIDFNPIEYRIQPGFINQSLGMTGILYWRVDFWTEDPWHDVLTLRADGMEFNGEGMLVYPGEQVGIDGVVPSIRLKAIRKGIEDYEYIEILKNLGHEQWALEISQSVGPDWHNWTKDHHKLEWARKQLGERINDLMTK", "notes": "as for B2"}, "B4": {"name": "NgaAt (Arabidopsis thaliana) (protein)", "chain": "MDNNVSQEMTVPVEGVAGGGTAYGFNDAEPLKQSTDPSEVPTADLVNVWCMPNTVNVGSQETPRALEPINLLAARNERESFQIAMRPKVSWAASSPSGIVQVQCSDLCSSAGDRLVVGQSLKLRRVVPVLGVPDALVPLDLPVSQLSLFPGETSVIWVSIDVPTGQPPGQYEGEIIISAMKTDGGGSSHLAKHEKDQLCVELNTCLDIMEPIEGKPMDEVVERIKCASSSLRRILFSPSFSEFISTNGSTDMMEEDVVSNLSLRIKLRLTVWEFIIPVTPSLPAVIGVSDTVIEDRFAVEHGSEDWYKKLDLHFKWLLQYRISPYFCKWGESMRVLTYTSPWPADHPKSDEYLSDSRLAAYAVPYRQVIAGDDSRESYLRKEVEILRSKPHWNKAYFYLWDEPLNMEHFDNVRKMASEIYAYAPDSRVLTTYYCGPGDAPLAPTPFESFVKVPNLLRPYTQIYCTSEWVLGNREDLVKDILDELQTENGEEWWTYICLGPSDPHPNWHLGMRGTQQRAVMWRVWKEGGTGFLYWGANCYEKATVPSAEVKFRRGLPPGDGVLYYPGEVFSSSSEPVASLRLERLLSGLQDYEYLKLYESKYGREEAMGLLEKTGVYTGPERYTLEHRPIDVLRGEVYNTCRPS", "notes": "synthetic gene, pET-47b(+), E. coli BL21 Star (DE3); His tag cut with HRV3C; monomer; extra N-terminal domain of ~80 residues disordered in crystal"}, "B5": {"name": "NgaP2 (Paenibacillus sp. TS12) (protein)", "chain": "LIRWSQVDEEGDTIMLEELPDFETRCLSSLSKVFADAELHDLPVNTGSAMWKEVFSFQVAYRSPQLIKSLKISAESELEPYLAIRAVGLSPSELPVFPNPDEGYIRTAPGLYPDPLYPLADGVHAVPNQWRSVWVTVSLPSMSEFIPAADIGAESVSFPIDLCFEDGKGNHLGAEKFALEIIFQELPEQTLLHTEWFHSDCIATQYKVEVFSEAHWKLIESYVHNAVNHGVNMLLTPLFTPPLDTYVGGERPTVQLIDVEITGVNEYRFKFDRLERWVEMCQRLGIQFIEFSHLFTQWGAKYAPKIIAKKDGEEKRIFGWDTEASGESYSLFLDQFLPQLVHFIRNHHLDDKVFFHVSDEPGMKHAESYRQASDILNKHLAGFSILDALSDYDFYEKGLVQIPVPSNDQIEPFIEHGVEPLWTYYCCGQDHHVSNRFFSLSSPRNRVLGAQLYKFGVQGFLHWGFNFWYSQYSKKVIDPFKVTDADCAFPSGDPFVVYPGADGPLDSIRWEVFREGLQDLRALKLLEALAGREKTLALLEQNLREELTFKSFPDDIEWLLSTREKINRAIKDAYRADR", "notes": "cloned from genomic DNA, pET-47b(+), E. coli BL21 Star (DE3); His tag cut with HRV3C; monomer; not the GH123 NgaP of the same strain"}, "B6": {"name": "NgaBa (Bathyarchaeia (SeqCode)) (protein)", "chain": "MSRFDVWVQDSLTKVFRDSPKPEDAIKDVVLDAVRNEYEAAQIVVHPLEDVERLEVRVTSLRHESDEYAITRVYPRFVGYVPVKRNTPDTPPEELVRKAPGMFPDPLLEEETVRVKKGENQPVWLTVYVPKDAPPGTYHGEVLIRADGDETRVKTCLRVHDVILPDERNLKLSNFLSPHNISKFHGVELWSEDFWRLLKAYARNMAEHRQSSIITPILELTRIYKGDDRLEFDFRLLDRWINLFKEEGVIGTVEGGYLAGRPPRTVEGWWTVSEFLSRRYRVFNKDGSLAYVQEPVKVSSPVFEEFISQFMPALQAHLDELGLLDSYVQHLADEPIDANAESYKHIAGLVRKYAPKIRIIEASTCKRLVDYIDVLVPLLDDYDKNMSFYEERKRRGNEVWFYTCLAPTGRYPNRLIDYSLVKVRILHWINFKYGLVGYLHWGYNYWTEKPFEDVENEPSHPFPLPPGDPFIVYPGKSGPLDSIRFEALRDGVEDYELFKLLAERKGLDEAVGLCSLAVKTITDYVRSSGELLSIRLRLINELESLG", "notes": "as for B2"}},
  "key": {"NgaLy [1]": {"molecular_target": "T1, NgaLy (Lacticaseibacillus yichunensis, UniProt A0ABW4CMK8, Y392A)", "T1 construct": "gene ACFQ47_05640; synthetic gene, pET-47b(+), E. coli BL21 Star (DE3); His tag cut with HRV3C; monomer; DE motif D327/E328", "T1 sequence (A0ABW4CMK8 entry or part of it Y392A)": "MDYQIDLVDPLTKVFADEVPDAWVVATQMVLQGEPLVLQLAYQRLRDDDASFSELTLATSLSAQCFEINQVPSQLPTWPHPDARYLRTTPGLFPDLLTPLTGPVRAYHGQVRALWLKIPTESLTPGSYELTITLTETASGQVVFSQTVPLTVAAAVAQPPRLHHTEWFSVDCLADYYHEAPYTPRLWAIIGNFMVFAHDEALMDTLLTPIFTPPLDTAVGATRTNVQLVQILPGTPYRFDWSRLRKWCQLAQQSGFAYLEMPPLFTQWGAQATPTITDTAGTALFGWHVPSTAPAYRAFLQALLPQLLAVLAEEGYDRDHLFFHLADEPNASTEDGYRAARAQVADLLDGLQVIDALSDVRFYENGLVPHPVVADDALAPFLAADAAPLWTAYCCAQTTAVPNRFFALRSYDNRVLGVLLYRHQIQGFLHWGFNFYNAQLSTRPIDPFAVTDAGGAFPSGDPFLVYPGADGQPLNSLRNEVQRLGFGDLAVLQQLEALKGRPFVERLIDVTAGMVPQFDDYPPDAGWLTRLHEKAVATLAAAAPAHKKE", "test": "relative activity versus wild type", "type": "biochemical", "settings": "substrate taken from the standard assay (Assay I)"}, "NgaLy [2]": {"molecular_target": "T2, NgaLy (Lacticaseibacillus yichunensis, UniProt A0ABW4CMK8, W431A)", "T2 construct": "gene ACFQ47_05640; synthetic gene, pET-47b(+), E. coli BL21 Star (DE3); His tag cut with HRV3C; monomer; DE motif D327/E328", "T2 sequence (A0ABW4CMK8 entry or part of it W431A)": "as the sequence (A0ABW4CMK8 entry or part of it Y392A) above, with A392Y, W431A counted along it", "test": "relative activity versus wild type", "type": "biochemical", "settings": "substrate taken from the standard assay (Assay I)"}, "purified protein [3]": {"substrate": "CC(=O)N[C@H]1[C@H](Oc2ccc([N+](=O)[O-])cc2)O[C@H](CO)[C@H](O)[C@@H]1O", "test": "purified protein", "type": "biochemical, Lacticaseibacillus yichunensis", "settings": "HEPES pH 7.0, 40 °C (optimum), apparent, not saturated up to 2 mM"}, "purified protein [4]": {"substrate": "CC(=O)N[C@H]1[C@H](Oc2ccc([N+](=O)[O-])cc2)O[C@H](CO)[C@H](O)[C@@H]1O", "test": "purified protein", "type": "biochemical, Brachybacterium faecium", "settings": "citrate pH 6.5, 35 °C (optimum), apparent, not saturated up to 2 mM"}, "purified protein [5]": {"substrate": "CC(=O)N[C@H]1[C@H](Oc2ccc([N+](=O)[O-])cc2)O[C@H](CO)[C@H](O)[C@@H]1O[C@@H]1O[C@H](CO)[C@H](O)[C@H](O)[C@H]1O", "test": "purified protein", "type": "biochemical, Cohnella abietis", "settings": "citrate pH 5.0, 25 °C (optimum), apparent, not saturated up to 2 mM"}, "purified protein [6]": {"substrate": "CC(=O)N[C@H]1[C@H](Oc2ccc([N+](=O)[O-])cc2)O[C@H](CO)[C@H](O)[C@@H]1O", "test": "purified protein", "type": "biochemical, Arabidopsis thaliana", "settings": "citrate pH 5.0, 40 °C (optimum), apparent, not saturated up to 2 mM"}, "purified protein [7]": {"substrate": "CC(=O)N[C@H]1[C@H](Oc2ccc([N+](=O)[O-])cc2)O[C@H](CO)[C@H](O)[C@@H]1O", "test": "purified protein", "type": "biochemical, Paenibacillus sp. TS12", "settings": "citrate pH 5.5, 40 °C (optimum), apparent, not saturated up to 2 mM"}, "purified protein [8]": {"substrate": "CC(=O)N[C@H]1[C@H](Oc2ccc([N+](=O)[O-])cc2)O[C@H](CO)[C@H](O)[C@@H]1O", "test": "purified protein", "type": "biochemical, Bathyarchaeia (SeqCode)", "settings": "citrate pH 6.5, 70 °C (optimum), apparent, not saturated up to 2 mM"}},
  "data": [
    {"molecule": "CC(=O)N[C@H]1[C@H](Oc2ccc([N+](=O)[O-])cc2)O[C@H](CO)[C@H](O)[C@@H]1O", "note": "[GalNAc-β-pNP]", "values": [
      {"measurement": "relative activity versus wild type", "setting": "NgaLy [1]", "result": "The Y392A and W431A mutants were purified as soluble enzymes"},
      {"measurement": "relative activity versus wild type", "setting": "NgaLy [2]", "result": "The Y392A and W431A mutants were purified as soluble enzymes"}
    ]},
    {"molecule": "B1", "values": [
      {"measurement": "Km", "setting": "purified protein [3]", "result": "1000 ± 50", "unit": "µM"},
      {"measurement": "kcat", "setting": "purified protein [3]", "result": "480 ± 10", "unit": "s⁻¹"}
    ]},
    {"molecule": "B2", "values": [
      {"measurement": "Km", "setting": "purified protein [4]", "result": "1000 ± 70", "unit": "µM"},
      {"measurement": "kcat", "setting": "purified protein [4]", "result": "170 ± 5", "unit": "s⁻¹"}
    ]},
    {"molecule": "B3", "values": [
      {"measurement": "Km", "setting": "purified protein [5]", "result": "11000 ± 3000", "unit": "µM"},
      {"measurement": "kcat", "setting": "purified protein [5]", "result": "1.2 ± 0.3", "unit": "s⁻¹"}
    ]},
    {"molecule": "B4", "values": [
      {"measurement": "Km", "setting": "purified protein [6]", "result": "12000 ± 5000", "unit": "µM"},
      {"measurement": "kcat", "setting": "purified protein [6]", "result": "8 ± 3", "unit": "s⁻¹"}
    ]},
    {"molecule": "B5", "values": [
      {"measurement": "Km", "setting": "purified protein [7]", "result": "360 ± 30", "unit": "µM"},
      {"measurement": "kcat", "setting": "purified protein [7]", "result": "28 ± 0.6", "unit": "s⁻¹"}
    ]},
    {"molecule": "B6", "values": [
      {"measurement": "Km", "setting": "purified protein [8]", "result": "3900 ± 1000", "unit": "µM"},
      {"measurement": "kcat", "setting": "purified protein [8]", "result": "510 ± 50", "unit": "s⁻¹"}
    ]}
  ]
}
